For one molecule, Kd results are on record in PMC4698670, “Fortilin potentiates the peroxidase activity of Peroxiredoxin-1 and protects against alcohol-induced liver damage in mice” (Scientific Reports, 2016).

The term Kd denotes the concentration at which binding is half-saturated.

This test concerns the target T1, recombinant human PRX1 (Sigma-Aldrich) (human, UniProt Q06830 1-199).
T1 construct: recombinant human peroxiredoxin-1, bought; construct not described; also called recombinant PRX1; source: bought: Sigma-Aldrich
T1 sequence (looked up): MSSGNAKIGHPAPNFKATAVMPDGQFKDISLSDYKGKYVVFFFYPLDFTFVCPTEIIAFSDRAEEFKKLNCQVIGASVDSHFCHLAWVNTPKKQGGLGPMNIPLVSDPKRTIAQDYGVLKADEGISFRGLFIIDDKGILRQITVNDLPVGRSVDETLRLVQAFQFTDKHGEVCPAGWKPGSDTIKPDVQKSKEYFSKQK
Kind of test: BLI; BLItz; biotinylated fortilin immobilized on streptavidin biosensors (1 μg/mL, 25 mM Tris, 150 mM NaCl, 0.1% Tween-20), then PBS; recombinant PRX1 in solution, 180 s association, 300 s dissociation in PBS; three independent experiments. To be noted: both partners purified.

B1: recombinant human fortilin tagged with the Strep-tag II (natural protein, UniProt P13693 1-172, looked up)
chain: MIIYRDLISHDEMFSDIYKIREIADGLCLEVEGKMVSRTEGNIDDSLIGGNASAEGPEGEGTESTVITGVDIVMNHHLQETSFTKEAYKKYIKDYMKSIKGKLEEQRPERVKPFMTGAAEQIKHILANFKNYQFFIGENMNPDGMVALLDYREDGVTPYMIFFKDGLEMEKC
modifications: biotin (biotinylated for the biolayer interferometry)
notes: human fortilin (TCTP) cDNA in the pESG-IBA5 vector; Biotinylated only for the biolayer interferometry; used without biotin in the activity and phosphorylation assays; also called recombinant fortilin; wild-type fortilin; source: 293T cells stably expressing it, purified (Strep-Tactin-Superflow resin)
For the molecule B1, the Kd worked out at 125 nM.
